Measurements as given in PMC7327492.

How the values were obtained:
YFP-FoxO3 L-C = assay: co-IP; YFP-FoxO3 constructs transfected into HeLa cells, purified using YFP resin, PP2A-B56 binding determined by Western blotting
YFP-FoxO3 I-C = assay: as above
YFP-FoxO3 H-C = assay: as above
Recombinant B56α = Recombinant B56α (UniProt Q15172); assay: ITC; purified full-length recombinant B56α and synthetic ADAM17 peptides

Sequence of PP2A-B56 (endogenous holoenzyme of HeLa cells) (Q15172 whole entry): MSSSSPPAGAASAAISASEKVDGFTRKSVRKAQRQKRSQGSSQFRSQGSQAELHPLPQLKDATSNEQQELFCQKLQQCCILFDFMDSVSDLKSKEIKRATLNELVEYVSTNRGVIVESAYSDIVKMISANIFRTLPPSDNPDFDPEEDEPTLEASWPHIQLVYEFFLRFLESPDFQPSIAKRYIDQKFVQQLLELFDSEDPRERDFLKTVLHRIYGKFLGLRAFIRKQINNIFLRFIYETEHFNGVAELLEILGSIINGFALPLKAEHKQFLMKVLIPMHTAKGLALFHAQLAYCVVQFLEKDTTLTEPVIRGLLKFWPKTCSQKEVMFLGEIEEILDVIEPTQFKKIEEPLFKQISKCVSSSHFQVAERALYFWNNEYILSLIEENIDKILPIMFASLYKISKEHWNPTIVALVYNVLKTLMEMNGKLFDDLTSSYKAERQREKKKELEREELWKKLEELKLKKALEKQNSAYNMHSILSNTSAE
Sequence of PP2A-B56 (endogenous holoenzyme of HeLa cells) (P30153 whole entry): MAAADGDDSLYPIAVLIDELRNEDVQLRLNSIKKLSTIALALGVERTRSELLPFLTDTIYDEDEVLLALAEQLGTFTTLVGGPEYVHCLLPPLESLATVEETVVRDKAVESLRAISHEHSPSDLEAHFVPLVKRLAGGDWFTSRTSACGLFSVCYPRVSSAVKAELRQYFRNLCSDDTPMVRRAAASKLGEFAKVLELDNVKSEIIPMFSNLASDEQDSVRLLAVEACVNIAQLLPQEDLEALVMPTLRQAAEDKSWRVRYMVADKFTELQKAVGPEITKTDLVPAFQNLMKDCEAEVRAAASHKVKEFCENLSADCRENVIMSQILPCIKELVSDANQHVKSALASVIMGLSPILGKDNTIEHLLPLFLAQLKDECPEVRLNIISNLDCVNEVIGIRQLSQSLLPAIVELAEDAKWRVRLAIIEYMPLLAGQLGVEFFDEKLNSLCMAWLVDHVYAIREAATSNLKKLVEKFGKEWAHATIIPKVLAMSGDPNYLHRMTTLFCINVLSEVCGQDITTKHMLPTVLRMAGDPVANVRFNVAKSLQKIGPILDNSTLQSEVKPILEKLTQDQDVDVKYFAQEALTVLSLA
Sequence of PP2A-B56 (endogenous holoenzyme of HeLa cells) (P67775 whole entry): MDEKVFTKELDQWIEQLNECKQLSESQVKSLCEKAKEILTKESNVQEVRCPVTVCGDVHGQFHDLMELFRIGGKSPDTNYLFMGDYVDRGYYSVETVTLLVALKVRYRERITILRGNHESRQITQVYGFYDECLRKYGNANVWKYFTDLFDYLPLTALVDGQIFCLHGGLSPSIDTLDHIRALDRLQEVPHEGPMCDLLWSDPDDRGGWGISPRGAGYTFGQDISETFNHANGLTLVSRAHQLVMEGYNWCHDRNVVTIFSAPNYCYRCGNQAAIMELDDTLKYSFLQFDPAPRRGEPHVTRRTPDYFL

Row | fold PP2A-B56 bound against wt FoxO3 (YFP-FoxO3 L-C) | fold PP2A-B56 bound against wt FoxO3 (YFP-FoxO3 I-C) | fold PP2A-B56 bound against wt FoxO3 (YFP-FoxO3 H-C) | Kd (Recombinant B56α) | Substance
1 | 0.5 fold | 4 fold | 10 fold |  | PP2A-B56 (endogenous holoenzyme of HeLa cells) (from UniProt Q15172 1-486; P30153 1-589; P67775 1-309) (complex)
2 |  |  |  | 900 nM | synthetic ADAM17 peptide engineered for optimal binding (LDTIQEEE)
